Literature values, collected in publication PMC8228819, “Comparison of a Short Linear Antimicrobial Peptide with Its Disulfide-Cyclized and Cyclotide-Grafted Variants against Clinically Relevant Pathogens” (Microorganisms, 2021).
Entries after “also recorded” stand apart in the source; their conditions may differ.

Tests used:
[1] = cited from earlier work
Description: These loops were previously found to be abl ... || Fractions f4 to f6 of [L6-optP7]Mco were initially tested against P. aeruginosa, E. coli, and MRSA (Table 1) using a rich media, Mueller–Hinton broth (MH), with all fractions displaying about the same moderate activity (within errors of the method). […] Calcium (Ca^2+) and magnesium (Mg^2+) often have the strongest effect on the antimicrobial activity of AMPs; their theoretical concentration in MH brot ...

[2] = cited from earlier work; remark: listed apart in the source
Description: We therefore followed two cyclization strategies: (i) a simple disulfide-cyclization by introduction of N- and C-terminal cysteines, and (ii) grafting onto an extremely stable scaffold with three disulfide bridges and backbone cyclization. The MCoTI-II cyclotide scaffold was used because of its inherent non-cytotoxic nature. […] The linear peptide was ...

red blood cells = settings: cited from earlier work
Description: The 9mer AMP was grafted into loops 5 and 6 of MCoTI-II. These loops were previously found to be abl ...

## Momordica trypsin inhibitor II (cyclo(SGSDGGVCPKILKKCRRDSDCPGACICRGNGYCG); also: three cystine-knot disulfides, pairing not given here; UniProt P82409 1-34, looked up) [MCoTI-II]
[1]
  Antimicrobial activity: does not exhibit any antimicrobial activity; also recorded: does not exhibit any antimicrobial effects
[2]
  Stability in human serum: high stability
Red blood cells
  Hemolytic activity towards red blood cells: does not show hemolytic activity
